Details: Bacillus subtilis (strain 168); pH 7; Thermal; CD; Potassium phosphate 10 mM; reversible: yes; whole UniProt chain shown

B1: Phosphocarrier protein HPr wild type, P08877 (protein)
chain: MAQKTFKVTADSGIHARPATVLVQTASKYDADVNLEYNGKTVNLKSIMGVMSLGIAKGAEITISASGADENDALNALEETMKSEGLGE
Tm: 72.6 °C
unfolding enthalpy (van 't Hoff): 74.9 kcal/mol

From FireProtDB (doi:10.1016/s0022-2836(02)00630-7)
